Measurements reported in the RNAGym collection of RNA variant scans (doi:10.7554/elife.80360).

B1: Hairpin Ribozyme (parent)
chain: GUCCUCUUUCACGUGCGCGUGAAAGAGAGAAGUGAACCAGAGAAACACACGUUGUGGUAUAUUACCUGGUA

Variants of: B1
Assay: self-cleavage, relative activity (ratio to wild type); higher = more cleavage; co-transcriptional

Variant | self-cleavage
C18A A30G | 0.115
G27C G34A | 0.161
C46U A71G | 0.302
G15U C50U | 0.49
G1C A43G | 0.113
G1A U55A | 0.229
U60C U67C | 0.329
G34U G40A | 0.751
G42A A61G | 0.201
U2C C4G | 0.0947
G1A G56A | 0.181
A24U A35C | 0.951
G32C C65U | 0.0495
U2C A24C | 0.227
U33C A41C | 0.114
U14A G19U | 0.736
C16U G54U | 0.82
A28G C66A | 0.231
A39G C65U | 0.263
C48G C65U | 0.166
U8A G13A | 0.637
C12A U62G | 0.143
U53G U55C | 0.369
U5C G57U | 0.138

Variant | self-cleavage
U8G A41U | 1.07
U8G A41G | 0.673
C16G G69U | 0.196
C48G G51C | 0.0824
G19U G40A | 0.325
A36G A59G | 0.146
C3U A36C | 0.369
A11C A59G | 0.161
C12U G21A | 0.748
A44G A45C | 0.252
A36C U63G | 0.0757
C3U A41C | 0.983
A47G A61U | 0.195
G29C A45C | 0.207
A35C C65U | 0.433
G17U U67C | 0.184
U2C G15A | 0.126
A26G U70C | 0.89
U52C G57A | 0.223
A43G A45C | 0.142
G17C A61G | 0.225
U7G G68A | 0.3
U52C A71U | 0.913
U7A G17C | 0.791

Variant | self-cleavage
C37G A43G | 0.261
U67G A71G | 0.208
G32A G69U | 0.161
C3U G13U | 0.429
C46G C66U | 0.215
C38U A44C | 0.0457
G27U U60A | 0.243
A49C U53C | 0.27
G40C A43G | 0.138
C48A G56A | 0.135
G51U | 1.03
A35U C50A | 0.295
G15A A64U | 0.233
A28U C38G | 0.0619
A43G U58C | 0.12
C3U C16U | 0.628
C18A U53C | 1.01
C4A G34C | 0.676
G17A U70C | 0.937
G54C G56U | 0.166
U9C G17A | 0.805
U53G G56C | 0.125
U14G G56A | 0.103
U5A G56A | 0.214

Variant | self-cleavage
U67A G69A | 0.116
U55C G56U | 0.321
C50G G57U | 0.307
G32A C37U | 0.129
G29C C46U | 0.171
A45U U53C | 0.161
A41U C50U | 0.781
A24C G40U | 0.132
U2C U63A | 0.115
A22U A47C | 0.345
A47G A59U | 0.186
G19A U60C | 1.05
G19A U60G | 0.448
U8A A43C | 0.153
C4A A26U | 0.228
G15C C48G | 0.109
C3G U8G | 0.204
A31G G68C | 0.115
C16U A45C | 0.066
C3A U20C | 0.728
G19U A43C | 0.101
G17A A24G | 0.824
G13A G29U | 0.116
C50A G69U | 0.173

Variant | self-cleavage
C3U U9A | 0.299
G40U G57C | 0.124
G32C U52C | 0.131
U2G A39G | 0.179
A26G A44C | 0.0629
A23U A36U | 0.491
A11G U52C | 0.944
C10A A47C | 0.334
A43U A45U | 0.164
G34C A64C | 0.578
G21A A43G | 0.127
A30C U63G | 0
A28C G54A | 0.301
G32C U62A | 0.234
A49U U63G | 0.111
G17U A36C | 0.587
C50G G69A | 0.152
A28G U33G | 0.211
C38A C46G | 0.133
C12U A71G | 0.797
C50G U52G | 0.312
C37A U53G | 0.23
U63A U70A | 0.0404
U33G A35U | 0.16

Variant | self-cleavage
A22G A24C | 0.705
C12A U53G | 0.587
G32C U60C | 0.0463
U2G A61U | 0.191
C16A U52A | 0.982
A41C A61U | 0.234
A26U C48A | 0.153
G13U A26G | 0.675
G15C A47C | 0.295
U8G G21C | 0.401
U5G C66U | 0.223
G40C G54A | 0.124
G32U A47U | 0.121
C37U U70A | 0.544
G25U G40C | 0.131
C3G A22U | 0.246
C6G U8G | 0.269
U20A A26U | 0.611
G54A U60G | 0.204
A44C U55G | 0.102
A24C A45C | 0.235
A11C C66A | 0.317
G27C A36G | 0.14
C10A G42U | 0.268

Variant | self-cleavage
C46G G68C | 0.13
G17A A49G | 0.62
C16A A49C | 0.0771
G25U U33C | 0.145
C38G A45G | 0.259
C3U G56A | 0.16
G25C A28G | 0.883
C18A G19C | 0.802
A28U U53C | 0.769
C18U A47C | 0.474
G42A C66G | 0.113
C12U U33G | 0.207
U2G C12A | 0.304
A11C A30G | 0.0919
G17A U58A | 0.709
G15C U58A | 0.751
A44G C48A | 0.102
U8A U9C | 0.377
C4G C50U | 0.154
A28C A59C | 0
C16A G51U | 0.861
A23U A47C | 0.386
G32U A49C | 0.0697
